The record followed here is paper PMC6662825, “The MTR4 helicase recruits nuclear adaptors of the human RNA exosome using distinct arch-interacting motifs” (Nature Communications, 2019).

The target of this test is T1, GST-MTR4∆N F677E (human, UniProt P42285 75-1042, F677E).
T1 construct: source: E. coli BL21 star (DE3), purified (Ni-NTA, heparin, SEC); not shown: 6xHis-GST, N-terminal, kept
T1 sequence (looked up): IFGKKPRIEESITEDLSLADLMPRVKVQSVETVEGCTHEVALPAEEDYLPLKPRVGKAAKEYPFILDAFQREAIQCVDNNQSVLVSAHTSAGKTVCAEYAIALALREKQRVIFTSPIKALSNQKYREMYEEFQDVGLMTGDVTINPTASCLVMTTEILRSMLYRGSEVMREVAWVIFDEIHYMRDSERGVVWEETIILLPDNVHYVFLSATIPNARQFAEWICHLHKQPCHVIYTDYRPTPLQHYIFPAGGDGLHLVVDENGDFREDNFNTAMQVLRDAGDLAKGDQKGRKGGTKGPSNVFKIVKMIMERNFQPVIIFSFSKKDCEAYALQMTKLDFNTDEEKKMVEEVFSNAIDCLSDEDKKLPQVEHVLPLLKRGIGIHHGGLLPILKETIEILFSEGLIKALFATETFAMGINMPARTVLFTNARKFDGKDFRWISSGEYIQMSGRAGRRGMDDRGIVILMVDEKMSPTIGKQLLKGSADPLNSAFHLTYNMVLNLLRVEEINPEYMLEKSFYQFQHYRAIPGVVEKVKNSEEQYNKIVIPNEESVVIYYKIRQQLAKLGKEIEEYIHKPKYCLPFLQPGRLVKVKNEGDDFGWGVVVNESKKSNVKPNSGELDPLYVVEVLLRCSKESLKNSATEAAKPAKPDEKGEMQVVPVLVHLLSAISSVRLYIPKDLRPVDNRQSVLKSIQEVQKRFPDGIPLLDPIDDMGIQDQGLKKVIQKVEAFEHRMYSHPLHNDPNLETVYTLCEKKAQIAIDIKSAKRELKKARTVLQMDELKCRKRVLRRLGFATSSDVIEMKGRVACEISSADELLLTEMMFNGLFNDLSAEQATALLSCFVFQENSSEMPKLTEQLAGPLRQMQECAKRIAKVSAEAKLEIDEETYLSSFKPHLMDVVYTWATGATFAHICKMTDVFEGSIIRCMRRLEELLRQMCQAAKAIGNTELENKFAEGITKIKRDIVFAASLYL
Put plainly: pull-down; GST-tagged MTR4 constructs as bait, Trx-NVL constructs as prey, glutathione sepharose; 10 μM GST-MTR4∆N with 20 μM Trx-NVL constructs; 50 mM Hepes pH 7.5, 150 mM NaCl, 5% glycerol, 0.05% NP40, 1 mM DTT, 30 min at 4 °C; SDS-PAGE, Coomassie. To be noted: both partners purified.

B1: Trx-NVL^167–216 (domain or fragment, human, UniProt O15381 167-216, looked up)
chain: KDSEGGWFIDKTPSVKKDSFFLDLSCEKSNPKKPITEIQDSKDSSLLESD
notes: source: E. coli BL21 star (DE3), purified (Ni-NTA, SEC); not shown: 6xHis-Trx, N-terminal, kept
Consider B1, for which the binding result is on record as “binds”.
